Experimental data taken from patent US20260193326A1 (published 2026).
Changes are numbered by the printed parent chain.

B1: A4-021 (VHH)
VHH: VQLQESGGGLVQAGGSLRLSCAASGSTFSINTMGWYRQAPGKQRELVATITRGGNTNYADSVKGRFTISRDNAKNTVYLQMNSLRPEDTAVYYCHVDEVRQSSWTTSNIWGQGTQVTVSS
B2: A4-034 (VHH)
VHH: B1 VHH with A13P, S26R, T27G, T49A, I50V, N55T, I109L
B3: A4-032 (VHH)
VHH: B1 VHH with A13P, A22V, T27S, I50V, G53D, N55S, D60N, I109L
B4: A4-011 (VHH)
VHH: B1 VHH with T27I, T32S, I50V, D60G, Q101E, I109L
B5: A4-001 (VHH)
VHH: B1 VHH with A13P, S26R, T27S, I50V, N55S, D60G, V96I
B6: A4-038 (VHH)
VHH: B1 VHH with A13P, T27H, I50V, N55S, D60N, V96L, I109L
B7: A4-048 (VHH)
VHH: B1 VHH with A13P, T27M, I50V, D60G, I109L
B8: A4-039 (VHH)
VHH: B1 VHH with A13P, T27G, Q43W, I50V, N55S, D60G, V96I, I109L
B9: A4-046 (VHH)
VHH: B1 VHH with A13P, T27R, I50V, N55S, I109L
B10: A4-024 (VHH)
VHH: B1 VHH with A13P, T27N, S29R, I50V, N55S, A73P, Q101E, I109L

Target: T1, AAV8
T1 construct: also called adeno-associated virus serotype 8
Test: SPR, AAV on CM5 chip;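 note: surface plasmon resonance with AAV amine-coupled to the chip as ligand, nanobodies injected as analyte over a concentration series, rate constants and affinity fitted from binding curves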
Description: (§1) AAV was amine-coupled to a CM5 sensor chip at a density of 500-800 response units (RU). Nanobodies were injected at seven concentrations (1-100 nM) with a flow rate of 45 μL/min, and chip regeneration was performed using glycine-HCl (pH 1.5). Binding curves at different nanobody concentrations were used to calculate kinetic parameters (Kₐ, Kd, KD) (Table 2 and FIG. 2).

In order of falling Kd:
1. B8  281 nM
2. B10  209 nM
3. B7  146 nM
4. B6  69.5 nM
5. B9  37.6 nM
6. B4  30.4 nM
7. B3  12.8 nM
8. B2  7.84 nM
9. B1  7.41 nM
10. B5  3.64 nM

In order of rising koff:
1. B7  0.00031 s⁻¹
2. B2  0.00047 s⁻¹
3. B6  0.0005 s⁻¹
4. B5  0.000669 s⁻¹
5. B10  0.00148 s⁻¹
6. B1  0.00155 s⁻¹
7. B3  0.00169 s⁻¹
8. B8  0.00177 s⁻¹
9. B4  0.00272 s⁻¹
10. B9  0.00455 s⁻¹

In order of falling kon:
1. B1  209000 M⁻¹ s⁻¹
2. B5  184000 M⁻¹ s⁻¹
3. B3  132000 M⁻¹ s⁻¹
4. B9  121000 M⁻¹ s⁻¹
5. B4  89400 M⁻¹ s⁻¹
6. B2  59900 M⁻¹ s⁻¹
7. B6  7190 M⁻¹ s⁻¹
8. B10  7080 M⁻¹ s⁻¹
9. B8  6290 M⁻¹ s⁻¹
10. B7  2130 M⁻¹ s⁻¹

Target: T2, AAV9
T2 construct: also called adeno-associated virus serotype 9
Test: SPR, AAV on CM5 chip;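 note: surface plasmon resonance with AAV amine-coupled to the chip as ligand, nanobodies injected as analyte over a concentration series, rate constants and affinity fitted from binding curves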
Description: as §1

In order of falling Kd:
1. B7  399 nM
2. B8  360 nM
3. B10  251 nM
4. B5  142 nM
5. B4  132 nM
6. B3  16.4 nM
7. B9  16.1 nM
8. B6  7.29 nM
9. B2  6.8 nM
10. B1  1.87 nM

In order of rising koff:
1. B1  0.00014 s⁻¹
2. B8  0.001 s⁻¹
3. B3  0.00108 s⁻¹
4. B6  0.0011 s⁻¹
5. B2  0.00129 s⁻¹
6. B7  0.0013 s⁻¹
7. B10  0.00173 s⁻¹
8. B9  0.00269 s⁻¹
9. B5  0.0116 s⁻¹
10. B4  0.0582 s⁻¹

In order of falling kon:
1. B4  439000 M⁻¹ s⁻¹
2. B2  190000 M⁻¹ s⁻¹
3. B9  167000 M⁻¹ s⁻¹
4. B6  151000 M⁻¹ s⁻¹
5. B5  81600 M⁻¹ s⁻¹
6. B1  74700 M⁻¹ s⁻¹
7. B3  65900 M⁻¹ s⁻¹
8. B10  6900 M⁻¹ s⁻¹
9. B7  3260 M⁻¹ s⁻¹
10. B8  2780 M⁻¹ s⁻¹

Target: T3, AAV5
T3 construct: also called adeno-associated virus serotype 5
Test: SPR, AAV on CM5 chip;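 note: surface plasmon resonance with AAV amine-coupled to the chip as ligand, nanobodies injected as analyte over a concentration series, rate constants and affinity fitted from binding curves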
Description: as §1

In order of falling Kd:
1. B8  246 nM
2. B9  55.3 nM
3. B7  54.4 nM
4. B10  35.5 nM
5. B4  29.6 nM
6. B2  12.2 nM
7. B1  7.81 nM
8. B3  6.7 nM
9. B5  6.47 nM
10. B6  1.57 nM

In order of falling koff:
1. B9  0.00933 s⁻¹
2. B8  0.00182 s⁻¹
3. B5  0.00098 s⁻¹
4. B1  0.00094 s⁻¹
5. B3  0.0009 s⁻¹
6. B7  0.00051 s⁻¹
7. B4  0.00028 s⁻¹
8. B6  0.00028 s⁻¹
9. B2  0.00021 s⁻¹
10. B10  0.00013 s⁻¹

In order of rising kon:
1. B10  3670 M⁻¹ s⁻¹
2. B8  7410 M⁻¹ s⁻¹
3. B7  9380 M⁻¹ s⁻¹
4. B4  9460 M⁻¹ s⁻¹
5. B2  17200 M⁻¹ s⁻¹
6. B1  120000 M⁻¹ s⁻¹
7. B3  134000 M⁻¹ s⁻¹
8. B5  151000 M⁻¹ s⁻¹
9. B9  169000 M⁻¹ s⁻¹
10. B6  178000 M⁻¹ s⁻¹

Target: T4, AAV2 (UniProt P03135 1-735)
T4 construct: also called adeno-associated virus serotype 2
Test: SPR, AAV on CM5 chip;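 note: surface plasmon resonance with AAV amine-coupled to the chip as ligand, nanobodies injected as analyte over a concentration series, rate constants and affinity fitted from binding curves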
Description: as §1

In order of rising Kd:
1. B6  0.704 nM
2. B1  0.798 nM
3. B5  1.06 nM
4. B3  2.53 nM
5. B2  3.36 nM
6. B8  39.5 nM
7. B9  48.8 nM
8. B7  155 nM
9. B4  284 nM
10. B10  639 nM

In order of falling koff:
1. B4  0.0462 s⁻¹
2. B9  0.00725 s⁻¹
3. B7  0.00137 s⁻¹
4. B10  0.00069 s⁻¹
5. B2  0.00066 s⁻¹
6. B3  0.0004 s⁻¹
7. B8  0.00015 s⁻¹
8. B6  0.00014 s⁻¹
9. B5  6.35e-05 s⁻¹
10. B1  4.37e-05 s⁻¹

In order of rising kon:
1. B8  3800 M⁻¹ s⁻¹
2. B7  8850 M⁻¹ s⁻¹
3. B1  54800 M⁻¹ s⁻¹
4. B5  60100 M⁻¹ s⁻¹
5. B9  148000 M⁻¹ s⁻¹
6. B3  158000 M⁻¹ s⁻¹
7. B4  163000 M⁻¹ s⁻¹
8. B2  196000 M⁻¹ s⁻¹
9. B6  199000 M⁻¹ s⁻¹
